This is an account of results in patent publication EP4339209A1 (MediMabbio Inc., dated 2024).

Sequences and labels used below:
B1: anti-GITR 51B VH4/VL4 humanized antibody (human IgG1, kappa) (antibody, V domains shown)
VH: QVQLVQSGAEVKKPGASVKVSCKTTGYRFTGYWINWVRQPPGKGLEWIGEILPGSGATYYSENFKGKVTITADTSTDTAYMELSSLRSEDTAIYYCARKGGYYAMDYWGQGTLVTVSS
VL: EIVLTQSPATLSLSPGERATLSCTASSSVSSSYFHWYQQKPGKAPKLWIYSTSNLQSGVPDRFSGSGSGTDYTLTISSLQAEDVATYYCHLYHRSPRTFGGGTKVEIKR
B2: anti-GITR 51B VH3/VL1 humanized antibody (human IgG1, kappa) (antibody, V domains shown)
VH: QVQLVQSGAEVKKPGASVKVSCKTTGYRFTGYWIEWVRQPPGKGLEWIGEILPGSGATYYSENFKGKVTITADTSTDTAYMELSSLRSEDTAIYYCARKGGYYAMDYWGQGTLVTVSS
VL: QIVLTQSPAIMSASLGERVTMSCTASSSVSSSYFHWYQQKPGSAPKLWIYSTSNLASGVPDRFSGSGSGTDYTLTVSSLQAEDVATYYCHLYHRSPRTFGGGTTVDIKR
B3: anti-GITR 51B VH3/VL5 humanized antibody (human IgG1, kappa) (antibody, V domains shown)
VH: QVQLVQSGAEVKKPGASVKVSCKTTGYRFTGYWIEWVRQPPGKGLEWIGEILPGSGATYYSENFKGKVTITADTSTDTAYMELSSLRSEDTAIYYCARKGGYYAMDYWGQGTLVTVSS
VL: EIVLTQSPATLSLSPGERATLSCTASSSVSSSYFHWYQQKPGKAPKLWIYSTSNLESGVPDRFSGSGSGTDYTLTISSLQAEDVATYYCHLYHRSPRTFGGGTKVEIKR
B4: anti-GITR 51B VH4/VL1 humanized antibody (human IgG1, kappa) (antibody, V domains shown)
VH: QVQLVQSGAEVKKPGASVKVSCKTTGYRFTGYWINWVRQPPGKGLEWIGEILPGSGATYYSENFKGKVTITADTSTDTAYMELSSLRSEDTAIYYCARKGGYYAMDYWGQGTLVTVSS
VL: QIVLTQSPAIMSASLGERVTMSCTASSSVSSSYFHWYQQKPGSAPKLWIYSTSNLASGVPDRFSGSGSGTDYTLTVSSLQAEDVATYYCHLYHRSPRTFGGGTTVDIKR
B5: anti-GITR 51B VH1/VL4 humanized antibody (human IgG1, kappa) (antibody, V domains shown)
VH: QVQLVQSGAELKKPGASVKLSCKTTGYRFTGYWIEWVRQPPGKGLEWIGEILPGSGATYYSENFKGKATITADTSTNTAYMEVSSLRSGDSAIYYCARKGGYYAMDYWGQGTSVTVSS
VL: EIVLTQSPATLSLSPGERATLSCTASSSVSSSYFHWYQQKPGKAPKLWIYSTSNLQSGVPDRFSGSGSGTDYTLTISSLQAEDVATYYCHLYHRSPRTFGGGTKVEIKR
B6: anti-GITR 51B VH5/VL5 humanized antibody (human IgG1, kappa) (antibody, V domains shown)
VH: QVQLVQSGAEVKKPGASVKVSCKTTGYRFTGYWIDWVRQPPGKGLEWIGEILPGSGATYYSENFKGKVTITADTSTDTAYMELSSLRSEDTAIYYCARKGGYYAMDYWGQGTLVTVSS
VL: EIVLTQSPATLSLSPGERATLSCTASSSVSSSYFHWYQQKPGKAPKLWIYSTSNLESGVPDRFSGSGSGTDYTLTISSLQAEDVATYYCHLYHRSPRTFGGGTKVEIKR
B7: anti-GITR 51B VH2/VL4 humanized antibody (human IgG1, kappa) (antibody, V domains shown)
VH: QVQLVQSGAEVKKPGASVKLSCKTTGYRFTGYWIEWVRQPPGKGLEWIGEILPGSGATYYSENFKGKATITADTSTNTAYMEVSSLRSEDTAIYYCARKGGYYAMDYWGQGTLVTVSS
VL: EIVLTQSPATLSLSPGERATLSCTASSSVSSSYFHWYQQKPGKAPKLWIYSTSNLQSGVPDRFSGSGSGTDYTLTISSLQAEDVATYYCHLYHRSPRTFGGGTKVEIKR
B8: anti-GITR 51B VH5/VL1 humanized antibody (human IgG1, kappa) (antibody, V domains shown)
VH: QVQLVQSGAEVKKPGASVKVSCKTTGYRFTGYWIDWVRQPPGKGLEWIGEILPGSGATYYSENFKGKVTITADTSTDTAYMELSSLRSEDTAIYYCARKGGYYAMDYWGQGTLVTVSS
VL: QIVLTQSPAIMSASLGERVTMSCTASSSVSSSYFHWYQQKPGSAPKLWIYSTSNLASGVPDRFSGSGSGTDYTLTVSSLQAEDVATYYCHLYHRSPRTFGGGTTVDIKR
B9: anti-GITR 51B VH2/VL5 humanized antibody (human IgG1, kappa) (antibody, V domains shown)
VH: QVQLVQSGAEVKKPGASVKLSCKTTGYRFTGYWIEWVRQPPGKGLEWIGEILPGSGATYYSENFKGKATITADTSTNTAYMEVSSLRSEDTAIYYCARKGGYYAMDYWGQGTLVTVSS
VL: EIVLTQSPATLSLSPGERATLSCTASSSVSSSYFHWYQQKPGKAPKLWIYSTSNLESGVPDRFSGSGSGTDYTLTISSLQAEDVATYYCHLYHRSPRTFGGGTKVEIKR
B10: anti-GITR 51B VH1/VL5 humanized antibody (human IgG1, kappa) (antibody, V domains shown)
VH: QVQLVQSGAELKKPGASVKLSCKTTGYRFTGYWIEWVRQPPGKGLEWIGEILPGSGATYYSENFKGKATITADTSTNTAYMEVSSLRSGDSAIYYCARKGGYYAMDYWGQGTSVTVSS
VL: EIVLTQSPATLSLSPGERATLSCTASSSVSSSYFHWYQQKPGKAPKLWIYSTSNLESGVPDRFSGSGSGTDYTLTISSLQAEDVATYYCHLYHRSPRTFGGGTKVEIKR
B11: anti-GITR 51B VH1/VL0 antibody (human IgG1, kappa) (antibody, V domains shown)
VH: QVQLVQSGAELKKPGASVKLSCKTTGYRFTGYWIEWVRQPPGKGLEWIGEILPGSGATYYSENFKGKATITADTSTNTAYMEVSSLRSGDSAIYYCARKGGYYAMDYWGQGTSVTVSS
VL: QIVLTQSPAIMSASLGERVTMTCTASSSVSSSYFHWYQQKPGSSPKLWIYSTSNLASGVPARFSGSGSGTSYSLTVSSLEAEDAATYYCHLYHRSPRTFGGGTTLDIKR
B12: anti-GITR 51B VH5/VL4 humanized antibody (human IgG1, kappa) (antibody, V domains shown)
VH: QVQLVQSGAEVKKPGASVKVSCKTTGYRFTGYWIDWVRQPPGKGLEWIGEILPGSGATYYSENFKGKVTITADTSTDTAYMELSSLRSEDTAIYYCARKGGYYAMDYWGQGTLVTVSS
VL: EIVLTQSPATLSLSPGERATLSCTASSSVSSSYFHWYQQKPGKAPKLWIYSTSNLQSGVPDRFSGSGSGTDYTLTISSLQAEDVATYYCHLYHRSPRTFGGGTKVEIKR
B13: anti-GITR 51B VH2/VL1 humanized antibody (human IgG1, kappa) (antibody, V domains shown)
VH: QVQLVQSGAEVKKPGASVKLSCKTTGYRFTGYWIEWVRQPPGKGLEWIGEILPGSGATYYSENFKGKATITADTSTNTAYMEVSSLRSEDTAIYYCARKGGYYAMDYWGQGTLVTVSS
VL: QIVLTQSPAIMSASLGERVTMSCTASSSVSSSYFHWYQQKPGSAPKLWIYSTSNLASGVPDRFSGSGSGTDYTLTVSSLQAEDVATYYCHLYHRSPRTFGGGTTVDIKR
B14: anti-GITR 51B VH1/VL1 humanized antibody (human IgG1, kappa) (antibody, V domains shown)
VH: QVQLVQSGAELKKPGASVKLSCKTTGYRFTGYWIEWVRQPPGKGLEWIGEILPGSGATYYSENFKGKATITADTSTNTAYMEVSSLRSGDSAIYYCARKGGYYAMDYWGQGTSVTVSS
VL: QIVLTQSPAIMSASLGERVTMSCTASSSVSSSYFHWYQQKPGSAPKLWIYSTSNLASGVPDRFSGSGSGTDYTLTVSSLQAEDVATYYCHLYHRSPRTFGGGTTVDIKR
B15: anti-GITR 51B VH4/VL5 humanized antibody (human IgG1, kappa) (antibody, V domains shown)
VH: QVQLVQSGAEVKKPGASVKVSCKTTGYRFTGYWINWVRQPPGKGLEWIGEILPGSGATYYSENFKGKVTITADTSTDTAYMELSSLRSEDTAIYYCARKGGYYAMDYWGQGTLVTVSS
VL: EIVLTQSPATLSLSPGERATLSCTASSSVSSSYFHWYQQKPGKAPKLWIYSTSNLESGVPDRFSGSGSGTDYTLTISSLQAEDVATYYCHLYHRSPRTFGGGTKVEIKR
B16: anti-GITR 51B VH0/VL1 antibody (human IgG1, kappa) (antibody, V domains shown)
VH: QVQLQQSGAELMKPGASVKLSCKTTGYRFTGYWIEWVKQRPGHGLEWIGEILPGSGATYYSENFKGKATFTADTSSNTAYMQVSSLTTGDSAIYYCARKGGYYAMDYWGQGTSVTVSS
VL: QIVLTQSPAIMSASLGERVTMSCTASSSVSSSYFHWYQQKPGSAPKLWIYSTSNLASGVPDRFSGSGSGTDYTLTVSSLQAEDVATYYCHLYHRSPRTFGGGTTVDIKR

For one assay, the target named is recombinant human GITR (Cat No. 13643-H08H, Lot No. LC12JA2509, Sino Biological) (human) (UniProt Q9Y5U5). Put plainly: SPR Biacore 8K, multi-cycle kinetics, purified IgG captured on Protein A, GITR as analyte.
Regarding B1, the Kd (in general, the equilibrium constant for the complex coming apart) was found to be 0.829 nM; the Relative KD (fold vs VH0/VL0) came out at 1.45; the koff (commonly a measure of how fast the partners let go of each other) was 0.000488 s⁻¹; the kon (commonly a measure of how fast the partners come together) was 590000 M⁻¹ s⁻¹.

Take B2: the Kd came to 0.606 nM, the Relative KD (fold vs VH0/VL0) was found to be 1.06, the koff came out at 0.000482 s⁻¹ and the kon was found to be 796000 M⁻¹ s⁻¹.

For the molecule B3, the Kd was determined as 0.778 nM, the Relative KD (fold vs VH0/VL0) stood at 1.37, the koff came out at 0.000456 s⁻¹ and the kon is 586000 M⁻¹ s⁻¹.

The target is the same in another assay. Put plainly: SPR Biacore 8K, single-cycle kinetics, IgG in supernatant captured on Protein A, GITR as analyte. (SPR reads the build-up and loss of mass on a sensor chip optically.)
Turning to B1, the dissociation constant Kd worked out at 0.987 nM, the Relative KD (fold vs VH0/VL0) was 1.7, the koff was 0.00053 s⁻¹ and the kon came to 537000 M⁻¹ s⁻¹.

On to B2, for which the equilibrium dissociation constant (Kd) was determined as 0.693 nM, the Relative KD (fold vs VH0/VL0) turned out to be 1.2, the koff worked out at 0.000543 s⁻¹ and the kon was determined as 784000 M⁻¹ s⁻¹.

As for B4, the Kd worked out at 1.05 nM, the Relative KD (fold vs VH0/VL0) was 1.9, the koff amounted to 0.00066 s⁻¹ and the kon was found to be 627000 M⁻¹ s⁻¹.

For the molecule B5, the Kd worked out at 1.31 nM, the Relative KD (fold vs VH0/VL0) was found to be 2.3, the koff worked out at 0.000616 s⁻¹ and the kon worked out at 469000 M⁻¹ s⁻¹.

Regarding B6, the Kd is 3.32 nM, the Relative KD (fold vs VH0/VL0) turned out to be 5.9, the koff was determined as 0.000975 s⁻¹ and the kon is 294000 M⁻¹ s⁻¹.

In the case of B7, the Kd was determined as 1.15 nM, the Relative KD (fold vs VH0/VL0) amounted to 2, the koff turned out to be 0.000577 s⁻¹ and the kon was 502000 M⁻¹ s⁻¹.

Consider B8, for which the Kd was 1.94 nM, the Relative KD (fold vs VH0/VL0) worked out at 3.4, the koff was 0.000742 s⁻¹ and the on-rate constant (kon) amounted to 382000 M⁻¹ s⁻¹.

Regarding B9, the Kd worked out at 1.33 nM, the Relative KD (fold vs VH0/VL0) amounted to 2.3, the koff amounted to 0.000635 s⁻¹ and the kon amounted to 477000 M⁻¹ s⁻¹.

Regarding B10, the Kd turned out to be 1.41 nM, the Relative KD (fold vs VH0/VL0) was found to be 2.5, the koff is 0.000628 s⁻¹ and the kon came out at 445000 M⁻¹ s⁻¹.

Turning to B3, the Kd stood at 0.916 nM, the Relative KD (fold vs VH0/VL0) came to 1.6, the koff was found to be 0.000507 s⁻¹ and the kon came out at 554000 M⁻¹ s⁻¹.

B11: the Kd was determined as 1.08 nM, the Relative KD (fold vs VH0/VL0) is 1.9, the koff is 0.000654 s⁻¹ and the kon amounted to 603000 M⁻¹ s⁻¹.

Regarding B12, the Kd amounted to 1.37 nM, the Relative KD (fold vs VH0/VL0) was determined as 2.4, the koff came out at 0.00149 s⁻¹ and the kon was 1.08e+06 M⁻¹ s⁻¹.

Turning to B13, the Kd amounted to 1.1 nM, the Relative KD (fold vs VH0/VL0) amounted to 1.9, the koff turned out to be 0.000734 s⁻¹ and the kon came out at 665000 M⁻¹ s⁻¹.

As to B14, the Kd came to 1.32 nM, the Relative KD (fold vs VH0/VL0) is 2.3, the koff was determined as 0.000949 s⁻¹ and the kon was determined as 721000 M⁻¹ s⁻¹.

With B15, the Kd was determined as 1.26 nM, the Relative KD (fold vs VH0/VL0) is 2.2, the koff stood at 0.000599 s⁻¹ and the kon was found to be 474000 M⁻¹ s⁻¹.

For B16, the Kd turned out to be 0.527 nM, the Relative KD (fold vs VH0/VL0) was 0.9, the koff was found to be 0.000338 s⁻¹ and the kon was determined as 642000 M⁻¹ s⁻¹.
